The results in this text go back to WO2023190852A1.

This assay has as its target RBD derived from the Omicron strain (BA.3 strain) (SARS-CoV-2).
ADG2 (antibody): the binding inhibition rate (%) was less than 80%.

AZD1061 (antibody) had a binding inhibition rate (%) of less than 80%. AZD8895 (antibody): the binding inhibition rate (%) is less than 80%. Turning to LY_CoV16 (antibody), the binding inhibition rate (%) is less than 80%. In the case of LY_CoV555 (antibody), the binding inhibition rate (%) was less than 80%.

Substance REGN10933 (antibody) came in with a binding inhibition rate (%) of less than 80%. The figure for REGN10987 (antibody) is less than 80%; for S309 (antibody) it is less than 80%.
